Laboratory results from the DeepSol protein solubility set.

Assay: soluble on expression in E. coli; label from the status in PepcDB or PDB records

Sequence | soluble on expression in E. coli
MAGFVPLRWPISRMSSAVPRYIVGIDLGTTHTVVSYADGGDPSRIEPLFLEQLVAPGQVAGRPLLPSVRYHPATGELAEADTALPWPVEETAPGCRPVIGEFARQLGSRSRGRLVASAKSWLCHTGVDRTADILPWGAPDEVPKVSPVEASASFLRHVRCAWNHRFPAHPLETQDVIVTIPASFDDAARALTVEAARRAGLANVRLLEEPQAACYDFLWTYRGRLAETLEGVNLLLVCDVGGGTTDFTLIRVDAGGSEPELERIAVGNHLMLGGDNIDLTLAHRLEPRLTGAERSLSATDLILLAEQCRRAKETLLAEQGPESVTVTLLGKGGGLIGGARSVELSRHEVLEVVLDGFFPRVGADAVPERRSGVVEFGLPYAADPAITRHAAAFLIRHRNDAGGAAPDALLLNGGVFHSPVIAGRMAEVVGSWCGRTPVMLRNPRPDQAVAFGAVAFGLSRRGLAVRRIGGGSARAYYLLVGDANERSRRGVCILPRGAAEGQEWTVERRNFLLSVGRPVRFHVFSSTVDSGHAPGDLAVLDEAGFGELPPLAVALQAQEQGDVEVRLAARLTAIGTLQLQCVAVGDPEQRWDLELQLRGGGPRPTASASLHPRAAEAQEHIGLIFGKKTRQFGPKAVKTLRNDLEKILGKREDWDTALCRELYAALLEGAPHRRRSADHERLWLSLAGYCLRPGFGAPLDDWRVGQVWNLYSQGLQFVNEAQNWSEWWIVWRRIAGGLRAEAQQRLFADVAGFIDPVRARRGNAEALAKKRAFEDMVRLAASLERLSAGDKTMLGGWLVQRLDKAPDSAELWWALGRVGARAPFHGSAHNLVAREVVEDWVELALQRDWKRQGFVAFAATLLARLTGDRERDLDATLRNRVAEKLVASSAPEIWLELVTEVRGLDASDEKRIFGEGLPPGLRLVDSAWGALEHHHHHH | not soluble
MVDIDSAVEAARRRGARRIVLQLPEGMLQYGLYIAKCFEEMLGGAAQVYLHADPTFGACDLHYGELDTTVRPDLIVHVGHSPYPAELAHEGLEPRGRVVYVRALSKSQLPLDALREAAGLLASRYGVRRVGIATTAQHTHLAEKAAEVLRGEGLEVAVPPGLRPYFGAAQVLGCDYRLARGVRADGFVYVGGGVFHPLGLYLATLKPVVQVDPYRGVSEDLTREGEKLYRSRLYRVSQSIGARRWGIIVGLKSGQYRPWLVEKLARAIESAGGEYLLVASEVTTLSQLVAIDNPWFEAFTVTSCPRLPTDDFWSYEKPVLTPGEAMMALEGRLEPYRFPWAAALEHHHHHH | not soluble
MKRVLIPGVILCGADVAQAVDDKNMYMHFFEEMTVYAPVPVPVNGNTHYTSESIERLPTGNGNISDLLRTNPAVRMDSTQSTSLNQGDIRPEKISIHGASPYQNAYLIDGISATNNLNPANESDASSATNISGMSQGYYLDVSLLDNVTLYDSFVPVEFGRFNGGVIDAKIKRFNADDSKVKLGYRTTRSDWLTSHIDENNKSAFNQGSSGSTYYSPDFKKNFYTLSFNQELADNFGVTAGLSRRQSDITRADYVSNDGIVAGRAQYKNVIDTALSKFTWFASDRFTHDLTLKYTGSSRDYNTSTFPQSDREMGNKSYGLAWDMDTQLAWAKLRTTVGWDHISDYTRHDHDIWYTELSCTYGDITGRCTRGGLGHISQAVDNYTFKTRLDWQKFAVGNVSHQPYFGAEYIYSDAWTERHNQSESYVINAAGKKTNHTIYHKGKGRLGIDNYTLYMADRISWRNVSLMPGVRYDYDNYLSNHNISPRFMTEWDIFANQTSMITAGYNRYYGGNILDMGLRDIRNSWTESVSGNKTLTRYQDLKTPYNDELAMGLQQKIGKNVIARANYVYREAHDQISKSSRTDSATKTTITEYNNDGKTKTHSFSLSFELAEPLHIRQVDINPQIVFSYIKSKGNLSLNNGYEESNTGDNQVVYNGNLVSYDSVPVADFNNPLKISLNMDFTHQPSGLVWANTLAWQEARKARIILGKTNAQYISEYSDYKQYVDEKLDSSLTWDTRLSWTPQFLQQQNLTISADILNVLDSKTAVDTTNTGVATYASGRTFWLDVSMKF | not soluble
MLDDIPITIQKSKKIKTLSLNITPSLEVILKMPNSCSQTRASAFLKEQEAWLKKTFLSMQEKHSLLRTNLEKYQNKILVFDEVKNANDYTLTELKKILKTYLEQKLPLIAQKMQTSYTHFSIRNNAKVLGSCSYHNRLSFALLLVCAQKEAIDYVIIHELAHTIHKNHSKNFWRCVQIFCPNYRALRERLKQNTIFYAQLLKTLQPLEHHHHHH | soluble
MGHHHHHHSHMCSWASYMTNSPTLIVMIGLPARGKTYVSKKLTRYLNWIGVPTKVFNLGVYRREAVKSYKSYDFFRHDNEEAMKIRKQCALVALEDVKAYLTEENGQIAVFDATNTTRERRDMILNFAEQNSFKVFFVESVCDDPDVIAANILEVKVSSPDYPERNRENVMEDFLKRIECYKVTYRPLDPDNYDKDLSFIKVINVGQRFLVNRVQDYIQSKIVYYLMNIHVQPRTIYLCRHGESEFN | soluble
GPLGSLYAIVLYDFKAEKADELTTYVGENLFICAHHNCEWFIAKPIGRLGGPGLVPVGFVSIIDIATGYATGNDVIEDIKSVNLPTVQEWKSNIARYKASNISLGSVE | soluble
MVMSFIKYPLPESVLQATEQRIQWVMDNFSRICVSFSGGKDSTVMLHLTAQAARLQGKKICVLFIDWEAQFSCTIAHCEKLRALYADVIETFYWVALPLTTQNALTQYKPQWQCWEPGTEWVRQPPPWAITHPGYFSFYQPGMSFEAFVSHFAEWFSQRRPAAVLVGIRADESLNRFMTISSQRKQRFADDKPWTTSAPGGHAWYIYPLYDWKTADIWTWFAKSGEPYNPLYDLMYQAGVPLRYMRICEP | not soluble
MGSDKIHHHHHHMYKLVIIEDEHIIRKWLRYAIDYKALDILVIGEAKDGKEGAVLIKESQPDIVLTDINMPIMTAFDMFEVTKDQTYAKIILSGYADFPNARSAIHYGVLEFLTKPIEKAALWECLQTIIAKIEKQKGSNQKTDACVYIPLPQMTDQIPEVVKDILEWVHAHFQDKISTSRLAHDLGYSESYIYQNIKKHLQMPLSDYINQYRINQAIQLMQQEPDLMVYEIAQAVGIYDYRYFDRVFKKYLGQTVKAFKEEHFMKDTDRSKPC | not soluble
MPGSTGKTRTAEAGETARRDQDSNSYVYGVVPADVELDPEARGVGDPPGRISLVRHGEIAALVSDIVLDRPLGRPDDLLAHQRLLDATAAEVPVLPFRFGAVVSDSEAVVEELLGPNHDDFLAALKELEGRAEYVVKGRYVERVVIGEVLAEDPEATRLREEIRGRPEEATWDARIQLGQMIGEAVAAKRDADTAALVDALAPKCAGVVVREPTHEQDAVHVAVLVDTDRQAEFEKILDEFGERWAGRIDLRLLGPLAPYDFVMAPGQGG | soluble
GPGSMTDFYSLIPSAPKGRFDGIERAHTAEDVKRLRGSVEIKYSLAEMGANRLWKLIHEEDFVNALGALSGNQAMQMVRAGLKAIYLSGWQVAADANTASAMYPDQSLYPANAGPELAKRINRTLQRADQIETAEGKGLSVDTWFAPIVADAEAGFGDPLDAFEIMKAYIEAGAAGVHFEDQLASEKKCGHLGGKVLIPTAAHIRNLNAARLAADVMGTPTLIVARTDAEAAKLLTSDIDERDQPFVDYEAGRTAEGFYQVKNGIEPCIARAIAYAPYCDLIWMETSKPDLAQARRFAEAVHKAHPGKLLAYNCSPSFNWKKNLDDATIAKFQRELGAMGYKFQFITLAGFHQLNYGMFELARGYKDRQMAAYSELQQAEFAAEADGYTATKHQREVGTGYFDAVSLAITGGQSSTTAMKESTETAQFKPAAE | soluble
MRGSPHHHHHHGSAKNVVLDHDGNLDDFVAMVLLASNTEKVRLIGALCTDADCFVENGFNVTGKIMCLMHNNMNLPLFPIGKSAATAVNPFPKEWRCLAKNMDDMPILNIPENVELWDKIKAENEKYEGQQLLADLVMNSEEKVTICVTGPLSNVAWCIDKYGEKFTSKVEECVIMGGAVDVRGNVFLPSTDGTAEWNIYWDPASAKTVFGCPGLRRIMFSLDSTNTVPVRSPYVQRFGEQTNFLLSILVGTMWAMCTHCELLRDGDGYYAADALTAAYVVDQKVANVDPVPIDVVVDKQPNEGATVRTDAENYPLTFVARNPEAEFFLDMLLRSARAC | soluble
MNASSAPQQQQQQQQPQQGQAPQQQQQGPPQHQYQQQRPFHGRVQNHMRGSGPFGNSNGYGRYTAPRGDQQHHDSTPLSSTNLYIRGLMPNTNDDLLREMCSKYGNIASTKAIMDKATNNCKGYGFVDFESPQAAAAAVDGLNTEGVQAQMAKLQQQEQDPTNLYIANLPLDFTEQMLETELNKFGMVISTRILRTPDNQSRGVGFARMDSKEKCEVIISALNGGRFDTMSKEGPALLIKQADTGRKSKHSMNNPEMLQRMQYPQVYQSYYGYHPAAVYQQHYDVNSLASQMGGMHVGGGNPQANGGGDMYGAHMYGQNAGGQGGQGVGQGGQGGNQQFYNPNNGRNKKYFQPMNPQ | not soluble
